Article PMC3794784, “The Role of Initial Oligomers in Amyloid Fibril Formation by Human Stefin B” (International Journal of Molecular Sciences, 2013)
Values joined by “and” are separate entries in the source; they are usually repeats but may differ in a detail not shown here. Identical values can stand only once.

How the values were obtained:
[1] = biological target: the molecule itself; assay: SEC; concentration dependence (34, 75, 100 μM), started from the oligomer mixture; 0.02 M ammonium acetate, pH 7.5, 0.15 M NaCl, 9% (v/v) TFE, 50 °C, 300 rpm, 5 h; aliquots on Superdex 75; dimer to monomers, Kd = [M]^2/[D]
[2] = biological target: the molecule itself; assay: SEC; oligomers isolated on Superdex 75 and then loaded on Superdex 200; room temperature; 0.01 M phosphate buffer, pH 7.0, 0.15 M NaCl (0.02 M ammonium acetate, pH 7.5 for ESI MS samples)
[3] = biological target: the molecule itself; assay: SEC; time course started from SEC-purified monomers, dimers, tetramers or higher-order oligomers; pH 5.8 (0.1 M phosphate buffer, 0.15 M NaCl, 9% (v/v) TFE, 25 °C); an aliquot every hour on Superdex 75; tetramer to dimers
[4] = biological target: the molecule itself; assay: native MS; ESI-Q-TOF MS of SEC fractions, stefin B in 0.02 M ammonium acetate, pH 7.5, injected directly, positive mode
[5] = biological target: the molecule itself; assay: SEC; pH dependent transitions started from separated tetramers or higher-order oligomers; 34 μM protein, 2 h at 23 °C at pH 4.8, 5.8 or 7.0, 0.15 M NaCl, 9% (v/v) TFE
[6] = biological target: the molecule itself; assay: SEC; concentration dependence (4, 9, 34, 75, 100 μM), started from the oligomer mixture; 0.1 M phosphate buffer, pH 5.8, 0.15 M NaCl, 9% (v/v) TFE, 25 °C, 300 rpm, 5 h; aliquots on Superdex 75; tetramer to dimers, Kd = [D]^2/[T]

B1: Recombinant human stefin B (S3E31) (natural protein, UniProt P04080 1-98, looked up)
chain: MMSGAPSATQPATAETQHIADQVRSQLEEKENKKFPVFKAVSFKSQVVAGTNYFIKVHVGDEDFVHLRVFQSLPHENKPLTLSNYQTNKAKHDELTYF
notes: human stefin B (product of the cystatin B gene), a globular protein of 98 amino acid residues; variant S3E31: Ser at position 3 instead of Cys, Glu at position 31; also called cystatin B
- Ka [1]: 612000 M⁻¹
- Kd [1]: 1630 ± 310 nM
- stoichiometry N [2]: 2 and 4
- koff [3]: 0.0001 s⁻¹
- stoichiometry N [4]: 10 and 8
- stoichiometry N [5]: 6 and 3
- Ka [6]: 3080 M⁻¹
- Kd [6]: 325 ± 180 µM
